# Several values for one entry are separate records, joined by “and”; a condition that tells them apart may be missing. Equal values may be shown once. Read-outs that look alike come from different tables or passages of the source.
# T1: hGITR.mmh (human)
# T1 chain: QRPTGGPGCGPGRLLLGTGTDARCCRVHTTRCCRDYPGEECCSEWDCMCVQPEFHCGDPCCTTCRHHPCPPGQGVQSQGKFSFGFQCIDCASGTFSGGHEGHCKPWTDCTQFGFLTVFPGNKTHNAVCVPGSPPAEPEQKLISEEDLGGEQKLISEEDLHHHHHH
# T2: human GITR on Jurkat/hGITR/hCD20 cells (human, UniProt Q9Y5U5 26-241)
# T2 sequence (looked up): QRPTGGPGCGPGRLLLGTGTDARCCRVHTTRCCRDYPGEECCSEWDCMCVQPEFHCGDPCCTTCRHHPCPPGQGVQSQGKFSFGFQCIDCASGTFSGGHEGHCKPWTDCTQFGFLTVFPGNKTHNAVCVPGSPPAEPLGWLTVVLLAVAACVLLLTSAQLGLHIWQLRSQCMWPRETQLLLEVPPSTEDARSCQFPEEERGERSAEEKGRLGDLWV
# B1: REGN6546, anti-GITR x anti-C1q bispecific antibody (bispecific antibody, V domains shown)
# VH 1: QVQLQESGPGLVKPSETLSLTCIVSGGSISGYFWNWIRQPPGKGLEWIGYIYYSGTTIYNPSLKSRFTISLDTSKNQFSLKLTSVTAADTAVYYCARESYNPSPRYFDHWGQGTLVTVSS
# VH 2: EVQLVQSGAEVKKPGESLKIFCKGSGYSFINDWIGWVRQMPGKGLEWMGLIFPGDSDTRYSPVFQGHVTISADQSIDTAYLQWNSLKASDTAIYYCAVLRYWHFAIWGRGTLVTVSS
# VL: not shown
# B2: REGN5066, anti-IsdB x anti-C1q bispecific antibody (bispecific antibody, V domains shown)
# VH 1: EVQLVESGGGLVQPGRSLRLSCTTSGFTFDDYAMHWVRQVPGQGLEWVAGLSWNSDTIGYADSVKGRFTISRDNAKNSLYLQMKSLKAEDTALYYCTKDFYHSLNNWNYYYFDYWGQGTLVTVSS
# VH 2: EVQLVESGGGVVQPGGSLRLSCAASGFSLDDYAMHWVRQTPGKGLEWVSLISGDGSRTSYADSVKGRFTISRDNSKNSLYLKMNSLRTEDTALYYCTKDPHNSNWFDPWGQGTLVTVSS
# VL: not shown
# notes: also called bsC1q × IsdB; bs hC1q × IsdB
# B3: REGN5067, anti-IsdB x anti-C1q bispecific antibody (bispecific antibody, V domains shown)
# VH 1: B2 VH 1
# VH 2: B1 VH 2
# VL: not shown
# B4: REGN5551, anti-Protein A x anti-C1q bispecific antibody (bispecific antibody, V domains shown)
# VH 1: EVQLVESGGGLVQPGGSLRLSCAASGFTFTSYDMHWVRQATGKGLEWVSNIDPAGNTFYPGSVKGRFTISRENAKKSLYLQMNSLRAGDTAVYYCARNLGNWGYDHWGQGTLVTVSS
# VH 2: B2 VH 2
# VL: not shown
# notes: also called bsC1q × Protein A; bs hC1q × protein A
# Legend:
# [1] = biological target: T3, human complement component 1q (C1q) (human, UniProt P02745 23-245; P02746 28-253; P02747 29-245)
# T3 sequence (P02745 23-245, chain 1 of 3): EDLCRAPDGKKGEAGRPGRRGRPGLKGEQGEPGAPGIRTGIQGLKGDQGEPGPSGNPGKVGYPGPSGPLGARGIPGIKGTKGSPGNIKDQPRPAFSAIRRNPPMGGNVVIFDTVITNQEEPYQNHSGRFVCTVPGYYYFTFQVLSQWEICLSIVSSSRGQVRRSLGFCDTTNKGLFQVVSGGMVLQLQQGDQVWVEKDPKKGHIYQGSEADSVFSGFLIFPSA
# T3 sequence (P02746 28-253, chain 2 of 3): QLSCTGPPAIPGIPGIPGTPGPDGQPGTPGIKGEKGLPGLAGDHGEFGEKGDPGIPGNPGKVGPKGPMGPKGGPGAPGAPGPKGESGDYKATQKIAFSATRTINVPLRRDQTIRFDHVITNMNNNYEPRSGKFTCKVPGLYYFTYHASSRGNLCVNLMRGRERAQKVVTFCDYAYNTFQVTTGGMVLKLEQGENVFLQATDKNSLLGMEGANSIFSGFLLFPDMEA
# T3 sequence (P02747 29-245, chain 3 of 3): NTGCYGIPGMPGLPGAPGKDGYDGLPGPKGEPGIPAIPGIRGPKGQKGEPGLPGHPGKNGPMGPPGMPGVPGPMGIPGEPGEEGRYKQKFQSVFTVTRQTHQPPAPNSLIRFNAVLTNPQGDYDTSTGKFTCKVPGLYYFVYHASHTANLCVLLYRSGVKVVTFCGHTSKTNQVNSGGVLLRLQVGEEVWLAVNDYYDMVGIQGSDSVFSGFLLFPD
# hGITR.mmh [2] = biological target: T1, hGITR.mmh
# hGITR.mmh [3] = biological target: T1, hGITR.mmh
# [4] = biological target: T2, human GITR on Jurkat/hGITR/hCD20 cells
# [5] = biological target: T3, human complement component 1q (C1q); remark: listed apart in the source
# biotinylated human C1q [6] = biological target: T4, biotinylated human C1q (human, UniProt P02745 23-245; P02746 28-253; P02747 29-245)
# T4 sequence (P02745 23-245, chain 1 of 3): as the sequence (P02745 23-245, chain 1 of 3) above
# T4 sequence (P02746 28-253, chain 2 of 3): as the sequence (P02746 28-253, chain 2 of 3) above
# T4 sequence (P02747 29-245, chain 3 of 3): as the sequence (P02747 29-245, chain 3 of 3) above
# hGITR.mmh [7] = biological target: T1, hGITR.mmh
# biotinylated human C1q [8] = biological target: T4, biotinylated human C1q; remark: listed apart in the source
# IsdB.6×(His) [9] = biological target: T5, IsdB.6×(His) (Staphylococcus aureus, UniProt A6QG30 41-613); assay: SPR (Biacore T200), 37C; bsAb captured, IsdB-6xHis injected
# [10] = biological target: T3, human complement component 1q (C1q); remark: listed apart in the source
# biotinylated human C1q [11] = biological target: T4, biotinylated human C1q
# [12] = biological target: T6, hemagglutinin (HA) on A/Puerto Rico/08/1934 (H1N1)-infected MDCK cells (Influenza A virus A/Puerto Rico/08/1934 …, UniProt P03452 18-565); assay: cell-based or functional assay
# IsdB.6×(His) [13] = biological target: T5, IsdB.6×(His); assay: SPR (Biacore T200), 37C; antibody captured, IsdB.6xHis injected
# [14] = biological target: T6, hemagglutinin (HA) on A/Puerto …; assay: cell ELISA on fixed A/Puerto Rico/08/1934 (H1N1)-infected MDCK cells
# biotinylated human C1q [15] = biological target: T4, biotinylated human C1q; assay: SPR (Biacore), 37C; biotinylated hC1q captured at low density, bsAb injected
# mouse C1q = mouse C1q (mouse, UniProt P98086 23-245; P14106 26-253; Q02105 30-246); assay: not described
# mouse C1q, sequence (P98086 23-245 limits assumed, chain 1 of 3): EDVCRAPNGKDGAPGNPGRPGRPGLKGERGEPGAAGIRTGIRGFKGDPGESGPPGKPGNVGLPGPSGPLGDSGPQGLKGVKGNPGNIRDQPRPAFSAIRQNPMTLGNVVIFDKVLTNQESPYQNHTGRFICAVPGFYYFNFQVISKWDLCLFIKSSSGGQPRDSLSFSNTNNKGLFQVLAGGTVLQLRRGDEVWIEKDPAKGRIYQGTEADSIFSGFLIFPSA
# mouse C1q, sequence (P14106 26-253 limits assumed, chain 2 of 3): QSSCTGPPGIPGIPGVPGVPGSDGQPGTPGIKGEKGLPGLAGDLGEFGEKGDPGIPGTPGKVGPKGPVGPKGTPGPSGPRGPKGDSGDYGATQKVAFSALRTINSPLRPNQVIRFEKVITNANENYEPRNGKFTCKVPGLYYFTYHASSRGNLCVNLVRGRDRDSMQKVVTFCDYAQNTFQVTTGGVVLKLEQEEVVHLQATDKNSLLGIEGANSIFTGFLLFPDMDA
# mouse C1q, sequence (Q02105 30-246 limits assumed, chain 3 of 3): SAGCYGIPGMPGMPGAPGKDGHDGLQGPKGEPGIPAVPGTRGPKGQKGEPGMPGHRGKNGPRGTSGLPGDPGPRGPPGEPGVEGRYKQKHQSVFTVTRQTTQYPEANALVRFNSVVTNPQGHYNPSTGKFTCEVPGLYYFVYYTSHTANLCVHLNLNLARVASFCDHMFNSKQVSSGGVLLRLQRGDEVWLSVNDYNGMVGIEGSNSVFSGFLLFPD
# IsdB.6×(His) [16] = biological target: T5, IsdB.6×(His); assay: SPR (Biacore 8k), 25C; IsdB-6xHis captured via anti-His, bsAb injected
# IsdB.6×(His) [17] = biological target: T5, IsdB.6×(His); assay: SPR (Biacore T200), 25C; bsAb captured, IsdB-6xHis injected
# [18] = biological target: T3, human complement component 1q (C1q); remark: listed apart in the source
# biotinylated human C1q [19] = biological target: T4, biotinylated human C1q; remark: listed apart in the source
# IsdB.6×(His) [20] = biological target: T5, IsdB.6×(His); assay: SPR (Biacore 8k), 37C; IsdB-6xHis captured via anti-His, bsAb injected
# [21] = biological target: T3, human complement component 1q (C1q); assay: SPR (Biacore T200), 25C; bsAb captured via anti-human F(ab')2, hC1q injected
# [22] = biological target: T3, human complement component 1q (C1q); assay: SPR (Biacore T200), 37C; bsAb captured via anti-human F(ab')2, hC1q injected
# IsdB.6×(His) [23] = biological target: T5, IsdB.6×(His); assay: SPR (Biacore), 37C; IsdB.6xHis captured, bsAb injected
# [24] = biological target: T7, IsdB on the surface of S. aureus Newman Δspa (Staphylococcus aureus, UniProt A6QG30 41-613); assay: ELISA, plate coated with S. aureus Newman Δspa, luminescence
# T7 construct: whole, on cells; also called iron-regulated surface determinant protein B
# [25] = biological target: T3, human complement component 1q (C1q); assay: cell-based or functional assay
# biotinylated human C1q [26] = biological target: T4, biotinylated human C1q; remark: listed apart in the source
# biotinylated human C1q [27] = biological target: T4, biotinylated human C1q; remark: listed apart in the source
# [28] = biological target: T3, human complement component 1q (C1q)
# [29] = biological target: T8, Protein A of S. aureus (ELISA on S. aureus Newman Δspa as printed) (Staphylococcus aureus); assay: ELISA, plate coated with S. aureus Newman Δspa, luminescence
# T8 construct: whole, on cells
binder,measurement,setting,value
B1,Kd,[1],4.63 nM
same,koff,[1],0.0227 s⁻¹
same,kon,[1],4.9e+06 M⁻¹ s⁻¹
same,Kd,hGITR.mmh [2],16 nM
same,koff,hGITR.mmh [2],0.019 s⁻¹
same,kon,hGITR.mmh [2],1.19e+06 M⁻¹ s⁻¹
same,Kd,hGITR.mmh [3],7.52 nM and 20.9 nM
same,kon,hGITR.mmh [3],453000 M⁻¹ s⁻¹ and 543000 M⁻¹ s⁻¹
same,EC50,[4],23.5 nM
same,Kd,[5],0.753 nM
same,koff,[5],0.00409 s⁻¹
same,kon,[5],5.43e+06 M⁻¹ s⁻¹
same,Kd,biotinylated human C1q [6],1880 nM
same,koff,biotinylated human C1q [6],0.413 s⁻¹
same,kon,biotinylated human C1q [6],220000 M⁻¹ s⁻¹
same,Kd,hGITR.mmh [7],4.61 nM
same,koff,hGITR.mmh [7],0.0031 s⁻¹
same,kon,hGITR.mmh [7],673000 M⁻¹ s⁻¹
same,Kd,biotinylated human C1q [8],8540 nM
same,koff,biotinylated human C1q [8],0.687 s⁻¹
same,kon,biotinylated human C1q [8],80500 M⁻¹ s⁻¹
B2,Kd,IsdB.6×(His) [9],3.43 nM
same,koff,IsdB.6×(His) [9],0.000557 s⁻¹
same,kon,IsdB.6×(His) [9],163000 M⁻¹ s⁻¹
same,t1/2,IsdB.6×(His) [9],20.7 min
same,Kd,[10],1.56 nM
same,T1/2,[10],2.3 min
same,koff,[10],0.00502 s⁻¹
same,kon,[10],3.22e+06 M⁻¹ s⁻¹
same,Kd,biotinylated human C1q [11],402 nM
same,koff,biotinylated human C1q [11],0.0366 s⁻¹
same,kon,biotinylated human C1q [11],91100 M⁻¹ s⁻¹
same,t1/2,biotinylated human C1q [11],0.32 min
same,CDC EC50 (H1N1-infected MDCK cells),[12],> 889 nM
same,Maximum percent specific lysis (CDC of H1N1-infected MDCK cells),[12],-6.15%
same,Kd,IsdB.6×(His) [13],3.43 nM
same,T1/2,IsdB.6×(His) [13],21 min
same,koff,IsdB.6×(His) [13],0.000557 s⁻¹
same,kon,IsdB.6×(His) [13],163000 M⁻¹ s⁻¹
same,Maximum binding (RLUs),[14],2500 RLU
same,Kd,biotinylated human C1q [15],3670 nM
same,T1/2,biotinylated human C1q [15],0.12 min
same,koff,biotinylated human C1q [15],0.0964 s⁻¹
same,kon,biotinylated human C1q [15],26200 M⁻¹ s⁻¹
same,binding result,mouse C1q,no binding
same,Kd,IsdB.6×(His) [16],2.3 nM
same,koff,IsdB.6×(His) [16],0.00105 s⁻¹
same,kon,IsdB.6×(His) [16],457000 M⁻¹ s⁻¹
same,t1/2,IsdB.6×(His) [16],11 min
same,Kd,IsdB.6×(His) [17],2.36 nM
same,koff,IsdB.6×(His) [17],0.00027 s⁻¹
same,kon,IsdB.6×(His) [17],115000 M⁻¹ s⁻¹
same,t1/2,IsdB.6×(His) [17],42.8 min
same,Kd,[18],3.23 nM
same,T1/2,[18],3.5 min
same,koff,[18],0.00334 s⁻¹
same,kon,[18],1.03e+06 M⁻¹ s⁻¹
same,Kd,biotinylated human C1q [19],666 nM
same,koff,biotinylated human C1q [19],0.0782 s⁻¹
same,kon,biotinylated human C1q [19],117000 M⁻¹ s⁻¹
same,t1/2,biotinylated human C1q [19],0.15 min
same,Kd,IsdB.6×(His) [20],7.52 nM
same,koff,IsdB.6×(His) [20],0.00657 s⁻¹
same,kon,IsdB.6×(His) [20],874000 M⁻¹ s⁻¹
same,t½,IsdB.6×(His) [20],1.8 min
same,Kd,[21],0.842 nM
same,koff,[21],0.00211 s⁻¹
same,kon,[21],2.51e+06 M⁻¹ s⁻¹
same,t1/2,[21],5.5 min
same,koff,[22],0.00502 s⁻¹
same,kon,[22],3.22e+06 M⁻¹ s⁻¹
same,t1/2,[22],2.3 min
same,Kd,IsdB.6×(His) [23],7.52 nM
same,T1/2,IsdB.6×(His) [23],1.8 min
same,koff,IsdB.6×(His) [23],0.00657 s⁻¹
same,kon,IsdB.6×(His) [23],874000 M⁻¹ s⁻¹
same,EC50,[24],0.19 nM
same,"C1q deposition on S. aureus (plate-based, anti-C1q detection), EC50",[25],0.127 nM
B3,Kd,IsdB.6×(His) [9],3.33 nM
same,koff,IsdB.6×(His) [9],0.00052 s⁻¹
same,kon,IsdB.6×(His) [9],156000 M⁻¹ s⁻¹
same,t1/2,IsdB.6×(His) [9],22.2 min
same,Kd,biotinylated human C1q [26],3770 nM
same,koff,biotinylated human C1q [11],0.365 s⁻¹
same,kon,biotinylated human C1q [11],168000 M⁻¹ s⁻¹
same,t1/2,biotinylated human C1q [11],0.03 min
same,Kd,biotinylated human C1q [27],2180 nM
same,Kd,[28],2.05 nM
same,Kd,IsdB.6×(His) [16],3.01 nM
same,koff,IsdB.6×(His) [16],0.000989 s⁻¹
same,kon,IsdB.6×(His) [16],328000 M⁻¹ s⁻¹
same,t1/2,IsdB.6×(His) [16],11.7 min
same,Kd,IsdB.6×(His) [17],1.7 nM
same,koff,IsdB.6×(His) [17],0.000204 s⁻¹
same,kon,IsdB.6×(His) [17],120000 M⁻¹ s⁻¹
same,t1/2,IsdB.6×(His) [17],56.6 min
same,koff,biotinylated human C1q [19],0.844 s⁻¹
same,kon,biotinylated human C1q [19],224000 M⁻¹ s⁻¹
same,t1/2,biotinylated human C1q [19],0.01 min
same,koff,[21],0.00435 s⁻¹
same,kon,[21],5.78e+06 M⁻¹ s⁻¹
same,t1/2,[21],2.7 min
same,koff,[22],0.0134 s⁻¹
same,kon,[22],6.52e+06 M⁻¹ s⁻¹
same,t1/2,[22],0.9 min
B4,Kd,[10],1.36 nM
same,koff,[10],0.00488 s⁻¹
same,kon,[10],3.06e+06 M⁻¹ s⁻¹
same,EC50,[29],0.148 nM
